Data set [1] is described as follows: Intrinsic fluorescence (Centre of Spectral Mass) vs temperature, unfolding temperature determination. The format is physicochemical. As to conditions: for Stability indexes Tm, Tonset and ΔT from CSM profiles: carbonate and FDA-approved buffers A9, B6, D1. The protocol:
Fluorescence spectra were recorded in a Cary Eclipse spectrofluorimeter (Agilent Technologies, Mulgrave, Australia). A quartz cell with 10 mm path length and a thermostated holder was used. The excitation and emission slits were set at 5 nm. Excitation wavelength (λex) was set at 295 nm. Emission spectra were acquired within a range from 310 to 450 nm. The protein concentration was 0.2 mg/mL in carbonate buffer (166 mM NaCO3H, pH 8). In order to evaluate the conformation stability against heating we obtained the fluorescence spectra at each temperature at a 1° C./min scan rate and we calculated the Centre of Spectral Mass (CSM) for each spectrum. CSM is a weighted average of the fluorescence spectrum peak. Also it is related with the relative exposure of the Trp to the protein environment. The maximum red-shift in the CSM of the Trp, is compatible with a large solvent accessibility (Li, T. M.; et al., Biochemistry 1976, 15, 5571-80; Ruan, K and Weber, G, Biochemistry 1989, 28 (5), 2144-53 and Mohana-Borges, R. et al., Proceedings of the National Academy of Sciences of the United States of America 1999, 96 (14), 7888-93) and the protein unfolding.
The Centre of Spectral Mass (CSM) was calculated for each of the fluorescence emission according to Eq.1 (Lakowicz, J. R.; et al., 1991, Biophys Chem 39(1), 79-84), where Ii is the fluorescence intensity measure at the wavelength λi.
Midpoint unfolding temperature (Tm) was determined as the temperature value that correspond to the inflexion point of the CSM vs T° curve. We also determined the Tonset as the temperature where the CSM value begins to increase.

The nature of data set [2]: Volume size distribution of protein nanoparticles and nanoconjugates by Dynamic Light Scattering (DLS). The format is physicochemical. As to conditions: for Nanoparticle size after assembly with ZnCl2 (DLS): assembled with ZnCl2 (0.04 mM and further concentrations up to 0.16 mM). The protocol: Volume size distribution of all protein nanoparticles and nanoconjugates were determined by Dynamic Light Scattering (DLS) at 633 nm in a Zetasizer Nano ZS (Malvern Instruments) in triplicate.
Volume size distribution of protein nanoparticles was determined in a Zetasizer Nano ZS (Malvern Instruments) by Dynamic Light Scattering (DLS) at 633 nm in triplicates.
The integrity of the recombinant proteins was checked by mass spectrometry (MALDI-TOF), TGX (Tris-Glycine eXtended) Stain-Free acrylamide gels electrophoresis (BioRad) and Western Blot analysis using anti-His monoclonal antibody (1:1000; Santa Cruz, ref. 57598). Protein concentration was determined by Bradford (Biorad) assay with an Albumin (Roche) standard curve. GFP fluorescence emission (510 nm) was determined on purified proteins with a Cary Eclipse fluorescence spectrophotometer (Agilent Technologies) using an excitation wavelength of 450 nm. The volume and size distribution of nanoparticles were measured by dynamic light scattering (DLS) at 633 nm through a Zetasizer Nano ZS (Malvern Instruments) using quartz cuvettes.

Data set [3] can be described thus: Precipitation assay against increasing concentrations of ZnCl2. As to conditions: increasing ZnCl2 up to 0.16 mM. The format is physicochemical. The protocol:
T22-NIDOmut3-H6, T22-NIDOmut4 T215V-H6 and T22-NIDOmut5-H6 were selected to proceed with the characterization due to their best production yields (24, 26 and 28 mg/L, respectively). At this point, volume-size distribution of each candidate was studied via DLS (FIG. 16). All three candidates were equivalent to the original T22-NIDOmut2-H6 in size before and after assembly into nanoparticles with ZnCl2 (0.04 mM). […] Precisely because Zn is used to mediate this assembly, it was deemed appropriate to perform a precipitation assay against increasing concentrations of ZnCl2, up to 0.16 mM, (FIG. 17A) to test whether the new proteins were resistant to Zn-induced precipitation or not.

Data set [4] can be described thus: Stability study in buffers: soluble protein loss after dialysis (Bradford, Nanodrop).
Description: For the stability study in other buffers, purified protein fractions were dialyzed against chosen FDA-approved buffer and carbonate as control. Protein concentration was initially set at 2.0 mg/ml in carbonate buffer and dialysed into 0.5 ml of each new buffer. Samples were centrifuged for 15 min 15000 g to remove precipitate and the remaining soluble protein concentration was determined by Bradford's assay and Nanodrop.
The stability of resulting proteins was studied in three FDA-approved buffers, and carbonate as control buffer.
A further data set deals with CXCR4+ HeLa cells. Kind of data set: In vitro cell viability of FdU nanoconjugates (CellTiter-Glo Luminescent Cell Viability Assay). The class given is cell-based, Human. As to conditions: CXCR4+ HeLa cell line, 25 nM, 48 h.

Description for CXCR4+ HeLa cells: HeLa cells (ATCC, CCL-2) were incubated in opaque 96-well plates in 90 μl of MEM alpha medium (Gibco) containing 10% of Fetal bovine serum (Gibco) in humidified atmosphere and 5% CO 2 at 37° C. Then, 10 μl of T22-NIDOmut3-H6-FdU and T22-NIDOmut2-H6-FdU nanoconjugates were added along with the control T22-NIDOmut3-H6 at 25 nM final concentration and incubated for additional 48 h. Cell viability was finally tested by CellTiter-Glo® Luminescent Cell Viability Assay (Promega) in a Victor 3 luminescent plate reader (Perkin Elmer). All samples were analyzed in triplicate and data expressed as mean % of viability (related to control cells)+/− standard error.

B1: STMH6: Isolated hexahistidine-tagged stefin A (protein, UniProt P01040 1-98, looked up)
Cystatin-A: MIPGGLSEAKPATPEIQEIVDKVKPQLEEKTNETYGKLEAVQYKTQVVAGTNYYIKVRAGDNKYMHLKVFKSLPGQNEDLVLTGYQVDKNKDDELTGF
modifications: His6 tag
notes: Isolated hexahistidine-tagged stefin A
For the molecule B1, in data set [1] (*Tm value assuming that the maximal CSM values represent the entirely unfolding state of the protein), the Tm entry is on record as “≅76° C.*”. In addition, the “Tonset, 1” value in data set [1] (temperature where the CSM value begins to increase) came to 70 °C.

B2: T22-NIDOmut2-H6: Modular protein: N-terminal T22 CXCR4 ligand, linker, mutated human nidogen-1 G2 domain (NIDOmut2), C-terminal poly-histidine; SEQ ID NO: 61 (protein)
chain: RRWCYRKCYKGYCYRKCRGGSSRSSSPQRVNGKVKGRIFVGSSQVPIVFENTDLASYVVMNHGNSYTAISTIPETVGYSLLPLAPVGGIIGWMFAVEQDGFKNGFSITGGEFTRQAEVTFVGHPGNLVIKQRFSGIDEHGHLTIDTELEGRVPQIPFGSSVHIEPYTELYHYSTSVITSSSTREYTVTEPERDGASPSRIYTYQWRQTITFQECVHDDSRPALPSTQQLSVDSVSVLYNQEEKILAYALSNSIGPVREGSPDAKHHHHHH
As for B2, the “Nanoparticle size (volume size distribution, DLS)” value in data set [2] (self-assembled material in storage (carbonate) buffer) is roughly 12 nm. For the same molecule, in data set [3], the “Loss of the initial soluble protein by Zn-induced precipitation” value is given as “up to 66%”. In addition, the “% Precipitation (Bradford)” value in data set [4] (buffer A9) is given as 12.7%; in data set [4] (buffer B6), “None”; in data set [4] (buffer Carbonate), 17.6%; in data set [4] (buffer D1), 84.1%. Besides, the “% Precipitation (Nanodrop)” value was 29.0% in data set [4] (buffer A9), “None” in data set [4] (buffer B6), 23.9% in data set [4] (buffer Carbonate) and 86.5% in data set [4] (buffer D1).

B3: T22-NIDOmut3-H6: T22-linker-NIDOmut3-H6 fusion protein, SEQ ID NO: 106 (protein)
chain: RRWCYRKCYKGYCYRKCRGGSSRSSSPQRVNGKVKGRIFVGSSQVPIVFENTDLASYVVMNHGNSYTAISTIPETVGYSLLPLAPVGGIIGWMFAVEQDGFKNGFSITGGEFTRQAEVTFVGHPGNLVIKQRFSGIDEKGNLTIDTELEGRVPQIPFGSSVHIEPYTELYHYSTSVITSSSTREYTVTEPERDGASPSRIYTYQWRQTITFQECVHDDSRPALPSTQQLSVDSVSVLYNQEEKILAYALSNSIGPVREGSPDAKHHHHHH
modifications: T22-NIDOmut3-H6
Consider B3, for which the “Nanoparticle size after assembly with ZnCl2 (DLS)” value in data set [2] was 17 nm. The Cytotoxicity result with CXCR4+ HeLa cells is “did not cause any cytoxicity”. Besides, the “Stability indexes Tm, Tonset and ΔT from CSM profiles” value in data set [1] was “shows the highest values”. For the same molecule, the “% Precipitation (Bradford)” value in data set [4] (buffer A9) is reported as 10.25%; in data set [4] (buffer B6), 5.4%; in data set [4] (buffer Carbonate), 17.6%; in data set [4] (buffer D1) it was 83.6%. For the same molecule, the “% Precipitation (Nanodrop)” value in data set [4] (buffer A9) is reported as 15.4%; in data set [4] (buffer B6) it was “None”; in data set [4] (buffer Carbonate), 24.5%; in data set [4] (buffer D1), 84.3%. Besides, the Solubility after dialysis result in data set [4] (buffer B6) is on record as “remained highly soluble”.

B4: T22-NIDOmut5-H6: T22 fusion protein, SEQ ID NO: 113 (protein)
chain: RRWCYRKCYKGYCYRKCRGGSSRSSSPQRVNGKVKGRIFVGSSQTPIVFENTDLASYVVMNHGNSYTAISTIPETVGYSLLPLAPVGGIIGWMFAVEQDGFKNGFSITGGEFTRQAEVTFQGHPGNLVIKQRFSGIDEKGNLTIDTELEGRVPQIPEGSSVHIEPYTELYHYSTSVITSSSTREYTVTEPERDGASPSRIYTYQWRQTITFQESTHDDSRPALPSTQQLSVDSVSVLYNQEEKILAYALSNSIGPVREGSPDAKHHHHHH
modifications: T22-NIDOmut5-H6
Take B4: the “Nanoparticle size after assembly with ZnCl2 (DLS)” value in data set [2] is listed as “nanoparticles of higher size”. Moreover, the “Stability indexes Tm, Tonset and ΔT from CSM profiles” value in data set [1] is “Second protein with better stability indexes”. The “% Precipitation (Bradford)” value is listed as “None” in data set [4] (buffer A9), 15.4% in data set [4] (buffer B6), 60.4% in data set [4] (buffer Carbonate) and 50.1% in data set [4] (buffer D1). The “% Precipitation (Nanodrop)” value is listed as “None” in data set [4] (buffer A9), 26.6% in data set [4] (buffer B6), 24.2% in data set [4] (buffer Carbonate) and 62.4% in data set [4] (buffer D1). For the same molecule, the Solubility after dialysis result in data set [4] (buffer A9) was “best suited”.
